Data taken from PMC12747287, “Human O-GlcNAcase catalytic-stalk dimer anchors flexible histone binding domains” (Research Square, 2025).

Target: T1, full length human O-GlcNAcase, long isoform (OGA-L) (human, UniProt O60502 1-916)
T1 construct: human O-GlcNAcase, long isoform (OGA-L), 103 kDa, full length; Dimer in the cryo-EM structure; The methods name an anti-c-Myc antibody beside the anti-His6 antibody; the 'C-term' tag may be c-Myc; also called hOGA; full-length OGA; source: E. coli TOP10 (pBAD/HisA, codon optimized), purified (Talon resin for the arrays; HisTrap and size-exclusion chromatography for cryo-EM); not shown: His6, …
T1 sequence (looked up): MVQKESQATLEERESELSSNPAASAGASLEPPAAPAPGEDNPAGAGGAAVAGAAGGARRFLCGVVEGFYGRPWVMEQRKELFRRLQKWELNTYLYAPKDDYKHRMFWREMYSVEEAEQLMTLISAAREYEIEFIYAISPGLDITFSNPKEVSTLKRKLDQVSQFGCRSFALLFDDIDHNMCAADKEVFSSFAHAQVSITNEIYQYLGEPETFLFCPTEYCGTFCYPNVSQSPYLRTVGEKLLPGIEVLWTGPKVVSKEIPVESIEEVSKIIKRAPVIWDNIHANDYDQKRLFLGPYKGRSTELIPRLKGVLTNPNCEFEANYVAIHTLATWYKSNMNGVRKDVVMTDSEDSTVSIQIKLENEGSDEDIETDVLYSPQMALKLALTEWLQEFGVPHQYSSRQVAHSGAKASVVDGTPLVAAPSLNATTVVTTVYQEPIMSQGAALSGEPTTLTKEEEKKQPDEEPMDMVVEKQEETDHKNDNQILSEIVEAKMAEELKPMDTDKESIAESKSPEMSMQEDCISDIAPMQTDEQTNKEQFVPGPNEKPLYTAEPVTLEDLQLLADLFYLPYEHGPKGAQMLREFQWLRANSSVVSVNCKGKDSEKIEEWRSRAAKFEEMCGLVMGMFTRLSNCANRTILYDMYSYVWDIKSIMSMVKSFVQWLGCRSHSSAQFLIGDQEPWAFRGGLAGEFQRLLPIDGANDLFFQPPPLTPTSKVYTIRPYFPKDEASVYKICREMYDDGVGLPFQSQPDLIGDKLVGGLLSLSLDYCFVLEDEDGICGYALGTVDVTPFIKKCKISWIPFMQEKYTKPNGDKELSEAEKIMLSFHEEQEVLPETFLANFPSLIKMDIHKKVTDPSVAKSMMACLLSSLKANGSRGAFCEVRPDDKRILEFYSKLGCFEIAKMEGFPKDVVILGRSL
Experiment: peptide or protein array; Active Motif MODified Histone Peptide Array (384 modified histone peptides in duplicate, on the array); 100 nM protein in 20 mM Tris pH 7.5, 1 mM DTT, 0.5 mg/mL BSA, RT 1 hour; detected by anti-His6 antibody (also C-term tag antibody) and IR-800 secondary antibody
Settings: both partners purified

binding result: binds
B1: histone H4 1-19 peptide, K5,8,12,16Ac (peptide, UniProt P62805 2-20, looked up)
peptide: SGRGKGGKGLGKGGAKRHR
modifications: acetyl-lysine at K5, K8, K12 and K16
notes: histone H4 tail peptide, residues 1-19; also called H4 1-19 K5,8,12,16Ac; H4K^5,8,12,16Ac; source: bought: Active Motif MODified Histone Peptide Array (peptide on the array)
